Test [1] deals with T. thermophilus RNAP core enzyme (T. thermophilus) (UniProt Q5SHR6). In words: SPR. A general note: In SPR one partner is held on a chip, and binding of the other changes the refractive index at the surface.
Test [2] addresses T. thermophilus RNAP σ^A holoenzyme (T. thermophilus HB8) (UniProt Q5SHR6). In words: SPR.

One substance from publication PMC5758890 can be followed below.

As usually defined, the Kd is the constant that tells how readily two partners part at equilibrium. A lower Kd goes with higher affinity. With “Thermus thermophilus bacteriophage P23–45 gp76 (natural protein)”, the dissociation constant Kd amounted to 8.4 µM in test [1] and 120 nM in test [2].
